This note sets out measurements from patent publication WO2021237516A1 (dated 2021).

A word on the Kd: it is the free concentration of one partner at which half of the binding sites on the other are occupied at equilibrium, for simple one-to-one binding. In general, IC50 refers to the point on the concentration scale where inhibition reaches its midpoint. Low readings indicate inhibition by little substance, high ones a need for much substance.

The target in experiment [1] is SARS-CoV-2 S1 (SARS-CoV-2, UniProt P0DTC2 16-685).
Experiment [2] concerns the target SARS-CoV S1 (SARS-CoV, UniProt P59594 14-667). The experiment is described as follows: competition ELISA as in Example 3.2: blocking of SARS-CoV S1 binding to hACE2. A general note: An ELISA detects its analyte on a solid surface through an enzyme-linked reagent.

B1: Ab2001.10 (antibody, V domains shown)
VH: QVQLVQSGAEVKKPGASVKVSCKASGDTFSSFDINWVRQATGQGLEWMGWMHAGSGNAGYAQKFQGRVTMTRDTSISTAYMELSSLRSEDTAVYYCANYVPHGAFQIWGQGTMVTVSS
VL: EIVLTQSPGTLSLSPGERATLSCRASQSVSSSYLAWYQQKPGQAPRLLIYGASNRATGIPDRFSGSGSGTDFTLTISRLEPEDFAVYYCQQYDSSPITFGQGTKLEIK
B1 gave a Kd in experiment [1] of 4.21 nM.

B2: Ab2001.16 (bispecific antibody, V domains shown)
VH 1: EVQLVESGGGLVQPGGSLRLSCAASGFSFSNSDMHWVRQATGKGLEWVSAIGDSGDTYYSDSVKGRFTISRENAKSSLYLQMNSLRAEDTAVYYCARAANWGWDWYFDLWGRGTLVTVSS
VH 2: EVQLVETGGGLIQPGGSLRLSCAASGFTVSSNYMSWVRQAPGKGLEWVSVIYSGGSTYYADSVKGRFTISRDNSKNTLYLQMNSLRAEDTAVYYCARDAGPYGMDVWGQGTTVTVSS
VL: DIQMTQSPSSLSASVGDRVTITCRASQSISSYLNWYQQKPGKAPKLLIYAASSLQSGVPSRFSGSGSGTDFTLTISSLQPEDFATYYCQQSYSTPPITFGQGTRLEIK
Take B2: in experiment [1], binding was put at a Kd of 2.39 nM.

B3: Ab2001.11 (antibody, V domains shown)
VH: EVQLVESGGGLVQPGGSLRLSCAASGFSFSNSDMHWVRQATGKGLEWVSAIGDSGDTYYSDSVKGRFTISRENAKSSLYLQMNSLRAEDTAVYYCARAANWGWDWYFDLWGRGTLVTVSS
VL: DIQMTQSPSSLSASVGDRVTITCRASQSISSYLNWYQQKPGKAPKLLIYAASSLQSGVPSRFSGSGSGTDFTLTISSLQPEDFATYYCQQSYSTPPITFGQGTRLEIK
In experiment [2], B3 yielded a half-inhibitory concentration (IC50) of 304 nM.

B4: Ab2001.08 (antibody, V domains shown)
VH: QVQLVQSGAEVKKPGSSVKVSCKASGGTFSSYAISWVRQAPGQGLEWMGRIIPIFGTANYAQKFQGRVTITADESTSTAYMELSSLRSEDTAVYYCASLASYSSGWEDVFDIWGQGTMVTVSS
VL: DIQMTQSPSSLSASVGDRVTITCRASQGISSWLAWYQQKPGKAPKLLIYDASNLETGVPSRFSGSGSGTDFTFTISSLQPEDIATYYCQQYDNLPLTFGGGTKVEIK
Turning to B4, the affinity in experiment [1], expressed as Kd, was 2.93 nM.
